The chains are these.
B1: ZNF649 (parent)
chain: DECEKAYFYMSCLVKHKRIHSREK

Results on 94 variants are retold here after the supplement of paper PMC10567573.
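Note: lentivirally expressed fusions sorted by FACS into six bins by GFP to DsRed ratio, PSI derived from sequencing read proportions per bin multiplied by bin number.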

This series covers variants of B1. Description: protein stability index of a GFP-peptide fusion (GPS, HEK-293T) (PSI 1-6); higher = more stable. To be noted: c terminus: a fixed tail appended.
For the variant DDCEKAYFYMSCLVKHKRIHSREK [E2D], the protein stability index amounted to 2.21.
Turning to DMCEKAYFYMSCLVKHKRIHSREK [E2M], the protein stability index came to 1.41.
Take DACEKAYFYMSCLVKHKRIHSREK [E2A]: the protein stability index came out at 2.17.
To DVCEKAYFYMSCLVKHKRIHSREK [E2V] belongs 1.57.
To DNCEKAYFYMSCLVKHKRIHSREK [E2N] belongs 2.62; to DYCEKAYFYMSCLVKHKRIHSREK [E2Y], 4.44.
DLCEKAYFYMSCLVKHKRIHSREK [E2L]: the protein stability index turned out to be 2.25.
To DTCEKAYFYMSCLVKHKRIHSREK [E2T] belongs 3.17; to DCCEKAYFYMSCLVKHKRIHSREK [E2C], 1.52.
With DGCEKAYFYMSCLVKHKRIHSREK [E2G], the protein stability index stood at 2.29.
To DRCEKAYFYMSCLVKHKRIHSREK [E2R] belongs 2.08.
To DICEKAYFYMSCLVKHKRIHSREK [E2I] belongs 1.71; to DPCEKAYFYMSCLVKHKRIHSREK [E2P], 2.21; to DSCEKAYFYMSCLVKHKRIHSREK [E2S], 1.72.
To DQCEKAYFYMSCLVKHKRIHSREK [E2Q] belongs 2.49; to DKCEKAYFYMSCLVKHKRIHSREK [E2K], 2.17.
On to DFCEKAYFYMSCLVKHKRIHSREK [E2F], for which the protein stability index came out at 2.82.
With DHCEKAYFYMSCLVKHKRIHSREK [E2H] the figure was 2.03; with DECERAYFYMSCLVKHKRIHSREK [K5R], 2.5; with DECEEAYFYMSCLVKHKRIHSREK [K5E], 2.95.
To DECEFAYFYMSCLVKHKRIHSREK [K5F] belongs 1.67.
To DECEMAYFYMSCLVKHKRIHSREK [K5M] belongs 2.34.
Turning to DECEQAYFYMSCLVKHKRIHSREK [K5Q], the protein stability index worked out at 3.08.
With DECEYAYFYMSCLVKHKRIHSREK [K5Y] the figure was 1.82; with DECEIAYFYMSCLVKHKRIHSREK [K5I], 1.79; with DECEWAYFYMSCLVKHKRIHSREK [K5W], 2.82.
To DECESAYFYMSCLVKHKRIHSREK [K5S] belongs 2.44; to DECEPAYFYMSCLVKHKRIHSREK [K5P], 3.51; to DECEVAYFYMSCLVKHKRIHSREK [K5V], 1.81.
To DECETAYFYMSCLVKHKRIHSREK [K5T] belongs 2.64; to DECECAYFYMSCLVKHKRIHSREK [K5C], 2.52.
For the variant DECEGAYFYMSCLVKHKRIHSREK [K5G], the protein stability index was 3.13.
Consider DECEAAYFYMSCLVKHKRIHSREK [K5A], for which the protein stability index stood at 2.71.
To DECENAYFYMSCLVKHKRIHSREK [K5N] belongs 2.84; to DECELAYFYMSCLVKHKRIHSREK [K5L], 2.61.
To DECEDAYFYMSCLVKHKRIHSREK [K5D] belongs 3.36.
As to DECEHAYFYMSCLVKHKRIHSREK [K5H], the protein stability index worked out at 2.79.
With DEIEKAYFYMSCLVKHKRIHSREK [C3I] the figure was 1.81; with DEQEKAYFYMSCLVKHKRIHSREK [C3Q], 3.11.
As for DEKEKAYFYMSCLVKHKRIHSREK [C3K], the protein stability index came to 2.88.
As to DEDEKAYFYMSCLVKHKRIHSREK [C3D], the protein stability index came to 2.98.
To DEAEKAYFYMSCLVKHKRIHSREK [C3A] belongs 3.06; to DENEKAYFYMSCLVKHKRIHSREK [C3N], 2.64.
With DEPEKAYFYMSCLVKHKRIHSREK [C3P] the figure was 2.77; with DEYEKAYFYMSCLVKHKRIHSREK [C3Y], 2.67; with DEFEKAYFYMSCLVKHKRIHSREK [C3F], 1.91.
With DELEKAYFYMSCLVKHKRIHSREK [C3L] the figure was 1.8; with DEWEKAYFYMSCLVKHKRIHSREK [C3W], 1.97; with DESEKAYFYMSCLVKHKRIHSREK [C3S], 2.53.
DEGEKAYFYMSCLVKHKRIHSREK [C3G]: the protein stability index was 2.92.
With DEREKAYFYMSCLVKHKRIHSREK [C3R] the figure was 2.33; with DEVEKAYFYMSCLVKHKRIHSREK [C3V], 2.55.
To DEHEKAYFYMSCLVKHKRIHSREK [C3H] belongs 2.35.
To DEEEKAYFYMSCLVKHKRIHSREK [C3E] belongs 3.97.
Take DETEKAYFYMSCLVKHKRIHSREK [C3T]: the protein stability index came to 2.9.
As for DEMEKAYFYMSCLVKHKRIHSREK [C3M], the protein stability index stood at 2.4.
Consider DECEKAYNYMSCLVKHKRIHSREK [F8N], for which the protein stability index was 3.7.
Turning to DECEKAYSYMSCLVKHKRIHSREK [F8S], the protein stability index came to 3.78.
For DECEKAYCYMSCLVKHKRIHSREK [F8C], the protein stability index came out at 2.96.
Turning to DECEKAYWYMSCLVKHKRIHSREK [F8W], the protein stability index is 3.07.
To DECEKAYLYMSCLVKHKRIHSREK [F8L] belongs 2.48.
To DECEKAYEYMSCLVKHKRIHSREK [F8E] belongs 4.18; to DECEKAYMYMSCLVKHKRIHSREK [F8M], 3.36; to DECEKAYAYMSCLVKHKRIHSREK [F8A], 3.44.
Regarding DECEKAYVYMSCLVKHKRIHSREK [F8V], the protein stability index stood at 3.23.
With DECEKAYYYMSCLVKHKRIHSREK [F8Y] the figure was 2.65.
With DECEKAYGYMSCLVKHKRIHSREK [F8G] the figure was 4.02.
To DECEKAYKYMSCLVKHKRIHSREK [F8K] belongs 3.6; to DECEKAYTYMSCLVKHKRIHSREK [F8T], 3.52; to DECEKAYQYMSCLVKHKRIHSREK [F8Q], 3.75.
As to DECEKAYPYMSCLVKHKRIHSREK [F8P], the protein stability index was found to be 4.1.
With DECEKAYRYMSCLVKHKRIHSREK [F8R] the figure was 2.82; with DECEKAYDYMSCLVKHKRIHSREK [F8D], 3.88.
With DECEKAYHYMSCLVKHKRIHSREK [F8H] the figure was 3.79.
With DECEKAYIYMSCLVKHKRIHSREK [F8I] the figure was 2.67.
Turning to DECEKAYFGMSCLVKHKRIHSREK [Y9G], the protein stability index is 4.26.
To DECEKAYFIMSCLVKHKRIHSREK [Y9I] belongs 2.42; to DECEKAYFTMSCLVKHKRIHSREK [Y9T], 3.94; to DECEKAYFEMSCLVKHKRIHSREK [Y9E], 3.
To DECEKAYFQMSCLVKHKRIHSREK [Y9Q] belongs 3.
For DECEKAYFPMSCLVKHKRIHSREK [Y9P], the protein stability index is 3.78.
To DECEKAYFRMSCLVKHKRIHSREK [Y9R] belongs 3.9; to DECEKAYFSMSCLVKHKRIHSREK [Y9S], 3.56.
For DECEKAYFAMSCLVKHKRIHSREK [Y9A], the protein stability index came out at 3.71.
With DECEKAYFHMSCLVKHKRIHSREK [Y9H] the figure was 3.03; with DECEKAYFDMSCLVKHKRIHSREK [Y9D], 4.51; with DECEKAYFWMSCLVKHKRIHSREK [Y9W], 3.49.
With DECEKAYFCMSCLVKHKRIHSREK [Y9C] the figure was 2.81.
With DECEKAYFMMSCLVKHKRIHSREK [Y9M] the figure was 2.57.
With DECEKAYFKMSCLVKHKRIHSREK [Y9K], the protein stability index was found to be 3.73.
To DECEKAYFVMSCLVKHKRIHSREK [Y9V] belongs 2.54.
With DECEKAYFLMSCLVKHKRIHSREK [Y9L] the figure was 2.35; with DECEKAYFNMSCLVKHKRIHSREK [Y9N], 3.93.
As for DECEKAYFFMSCLVKHKRIHSREK [Y9F], the protein stability index is 2.66.
